Measured values from patent publication US20200317768A1 (published 2020).

T1: GST-hMSTN 61-160aa (human, UniProt O14793 61-160)
T1 construct: As GST-hMSTN 1-100aa; also called fourth fragment; not shown: GST tag from the pGEX4.1 vector
T1 sequence: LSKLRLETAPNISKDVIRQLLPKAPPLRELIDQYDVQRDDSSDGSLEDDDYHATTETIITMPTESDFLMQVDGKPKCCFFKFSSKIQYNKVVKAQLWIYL

T2: GST-hMSTN 81-180aa (human, UniProt A1C2U3 81-180 (Pongo pygmaeus entry))
T2 construct: As GST-hMSTN 1-100aa; also called fifth fragment; not shown: GST tag from the pGEX4.1 vector
T2 sequence: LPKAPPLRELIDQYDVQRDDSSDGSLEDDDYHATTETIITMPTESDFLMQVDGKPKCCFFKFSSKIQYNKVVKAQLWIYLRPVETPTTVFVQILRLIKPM

T3: GST-hMSTN 101-200aa (human, UniProt A1C2U3 101-200 (Pongo pygmaeus entry))
T3 construct: As GST-hMSTN 1-100aa; also called sixth fragment; not shown: GST tag from the pGEX4.1 vector
T3 sequence: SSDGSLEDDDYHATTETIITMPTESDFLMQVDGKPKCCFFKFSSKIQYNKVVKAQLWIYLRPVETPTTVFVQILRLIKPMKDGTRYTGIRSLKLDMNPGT

T4: GST-hMSTN 121-220aa (human, UniProt A1C2U3 121-220 (Pongo pygmaeus entry))
T4 construct: As GST-hMSTN 1-100aa; also called seventh fragment; not shown: GST tag from the pGEX4.1 vector
T4 sequence: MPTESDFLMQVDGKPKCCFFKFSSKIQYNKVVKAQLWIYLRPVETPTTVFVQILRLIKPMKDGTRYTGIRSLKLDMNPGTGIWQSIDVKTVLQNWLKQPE

T5: GST-hMSTN 141-241aa (human, UniProt A1C2U3 141-241 (Pongo pygmaeus entry))
T5 construct: As GST-hMSTN 1-100aa; also called eighth fragment; not shown: GST tag from the pGEX4.1 vector
T5 sequence: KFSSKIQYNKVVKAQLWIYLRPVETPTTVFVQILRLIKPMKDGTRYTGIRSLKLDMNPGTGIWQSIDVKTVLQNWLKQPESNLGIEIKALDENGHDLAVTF

T6: Human latent myostatin (human, UniProt O14793 25-266; O14793 267-375)
T6 construct: Biotinylated in the ELISAs; also called human myostatin latent form
T6 sequence 1: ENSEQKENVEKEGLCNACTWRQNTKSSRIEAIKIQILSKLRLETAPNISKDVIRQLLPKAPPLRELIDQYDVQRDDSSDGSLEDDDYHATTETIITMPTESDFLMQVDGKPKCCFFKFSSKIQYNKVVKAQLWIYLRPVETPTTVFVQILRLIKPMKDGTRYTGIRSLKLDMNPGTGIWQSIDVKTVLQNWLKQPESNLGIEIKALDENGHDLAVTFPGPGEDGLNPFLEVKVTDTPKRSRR
T6 sequence 2: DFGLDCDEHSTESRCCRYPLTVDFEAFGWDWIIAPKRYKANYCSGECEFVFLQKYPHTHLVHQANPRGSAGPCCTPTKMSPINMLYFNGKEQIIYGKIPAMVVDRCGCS


Tests used:
[1] = molecular target: T7, human FcγRIIIaV extracellular domain with C-terminal His-tag (human, UniProt P08637 17-208); experiment: SPR (BIACORE T200/4000), antibody captured, FcγR as analyte, 25 C
T7 construct: also called FcgRIIIaV; not shown: His-tag added to the C-terminus
T7 sequence (P08637 17-208 F176V): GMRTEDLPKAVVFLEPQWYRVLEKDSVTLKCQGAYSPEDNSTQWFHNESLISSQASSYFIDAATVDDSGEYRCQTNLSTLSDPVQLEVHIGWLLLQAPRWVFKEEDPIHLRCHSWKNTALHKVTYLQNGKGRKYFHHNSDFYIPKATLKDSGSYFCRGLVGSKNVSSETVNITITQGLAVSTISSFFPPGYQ

[2] = molecular target: T8, cyno FcγRIIIaS extracellular domain with C-terminal His-tag (cynomolgus monkey, UniProt A3RFZ7 21-206 (rhesus entry)); experiment: as above
T8 construct: also called FcgRIIIaS; not shown: His-tag added to the C-terminus
T8 sequence (A3RFZ7 21-206): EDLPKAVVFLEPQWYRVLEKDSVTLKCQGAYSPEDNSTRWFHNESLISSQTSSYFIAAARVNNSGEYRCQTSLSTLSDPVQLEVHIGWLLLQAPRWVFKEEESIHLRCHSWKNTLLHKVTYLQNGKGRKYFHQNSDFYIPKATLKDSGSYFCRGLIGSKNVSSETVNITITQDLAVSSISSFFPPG

GST-hMSTN 61-160aa = molecular target: T1, GST-hMSTN 61-160aa; experiment: Western blot on GST tagged fragments
Excerpt: (§1) Fragments of the N-terminal propeptide coding region of human latent myostatin were cloned into a pGEX4.1 vector so as to produce GST tagged propeptide fragments of 100 amino acid each, with 80 amino acid overlap (FIG. 22A). Protein expression was induced in transformed BL21 competent cells with Overnight Express Autoinduction System (Merck Millipore) and protein was extracted using the BUGBUSTER® protein extraction reagent (Novagen).

GST-hMSTN 81-180aa = molecular target: T2, GST-hMSTN 81-180aa; experiment: Western blot on GST tagged fragments
Excerpt: as §1

GST-hMSTN 101-200aa = molecular target: T3, GST-hMSTN 101-200aa; experiment: Western blot on GST tagged fragments
Excerpt: as §1

GST-hMSTN 121-220aa = molecular target: T4, GST-hMSTN 121-220aa; experiment: Western blot on GST tagged fragments
Excerpt: as §1

GST-hMSTN 141-241aa = molecular target: T5, GST-hMSTN 141-241aa; experiment: Western blot on GST tagged fragments
Excerpt: as §1

Human latent myostatin [3] = molecular target: T6, Human latent myostatin; experiment: SPR (BIACORE), additional dissociation phase at pH5.8 after dissociation at pH7.4
Method: (§2) Each amino acid in the CDRs was individually mutated to histidine using In-Fusion HD Cloning Kit (Clontech Inc, or Takara Bio company) according to the manufacturer's instructions. […] All histidine-substituted variants were evaluated by a modified BIACORE® assay as compared to that described above. Briefly, an additional dissociation phase at pH5.8 was integrated into the BIACORE® assay immediately after the dissociation phase at pH7.4. This is to assess the pH-dependent dissociation between antibody (Ab) and antigen (Ag) from the complexes formed at pH7.4 as opposed to the corresponding dissociation at pH5.8. The dissociation rate at pH5.8 buffer was determined by processing and fitting data using the Scrubber 2.0 (BioLogic Software) curve fitting software.
(§3) Antibodies with a combination of these mutations in the CDRs were then generated.

Human latent myostatin [4] = molecular target: T6, Human latent myostatin; experiment: SPR (BIACORE), additional dissociation phase at pH5.8 after dissociation at pH7.4, Scrubber 2.0 fit
Method: as §2, §3

binding result [1] | binding result [2] | binding result (GST-hMSTN 61-160aa) | binding result (GST-hMSTN 81-180aa) | binding result (GST-hMSTN 101-200aa) | binding result (GST-hMSTN 121-220aa) | binding result (GST-hMSTN 141-241aa) | fold faster dissociation rate at pH5.8 than the parental antibody Ab001 (Human latent myostatin [3]) | koff (Human latent myostatin [4]) | Binder
binds | binds | – | – | – | – | – | – | – | M103205H795-MY009/M103202L889-SK1 (antibody, human IgG1, kappa, SG1 with P238D (EU numbering); also called MS1032LO06-MY009; MS1032LO006-MY009) heavy: not shown light: DIVMTQSPATLSLSPGERATLSCTSSQSVYHANWLSWFQQKPGQPPKLLIYWASTLAYGVPSRFSGSGSGTDFTLTISSLQPEDAATYYCAGGYGGGRYAFGQGTKVEIKRTVAAPSVFIFPPSDEQLKSGTASVVCLLNNFYPREAKVQWKVDNALQSGNSQESVTEQDSKDSTYSLSSTLTLSKADYEKHKVYACEVTHQGLSSPVTKSFNRGEC
– | – | no binding | no binding | no binding | no binding | no binding | – | – | MST1538 (antibody, human IgG1, kappa, V domains shown) VH: QSLEESGGGLVKPGGTLTLTCKASGIDFSSYYYMCWVRQAPGKGLEWIACIYAGISGSTYYASWAKGRFTISKTSSTTVTLQMTSLTAADTATYFCARDPYHFDYGSLWGPGTLVTVSS VL: ALVMTQTPASVSAAVGGTVTINCQASQSVYGGNELSWYQQEPGQPPKLLIYSASKLASGVPSRFKGSGSGTQFTLTISGVQCDDAAAYYCAGYRTYSDDDNAFGGGTKVEIKR
– | – | – | – | – | – | – | > 200 fold | 0.00609 s⁻¹ | Ab002 (M103205H001 / M103202L000) (antibody, human IgG1, kappa, V domains shown, Histidine-substituted variant of MS1032LO00-SG1) VH: QVTLKESGPVLVKPTETLTLTCTVSGIDLSHYDISWVRQAPGKGLEWVGIISYAGSTYYASWAKGRLTISKDTSKNQVVLTMTNMDPVDTATYYCARGVPAYSTGGDLWGQGTLVTVSS VL: DIVMTQSPATLSLSPGERATLSCQSSQSVYDNNWLSWFQQKPGQPPKLLIYWASTLASGVPSRFSGSGSGTDFTLTISSLQPEDAATYYCAGGYGGGLYAFGQGTKVEIKR
– | – | no binding | no binding | no binding | no binding | no binding | – | – | MST1572 (antibody, human IgG1, kappa, V domains shown) VH: QSVEESGGRLVTPGTPLTLTCTVSGFSLSSYAMSWVRQAPGKGLEWIGIIYGVGSTYYASWAKGRFTISKTSTTVDLKIASPTTEDTATYFCARDDYGWGYTNLWGPGTLVTVSS VL: QVLTQTPSSVSAAVGGTVTINCQSSQSVYNNNYLAWFQQKPGQPPKLLIYDASKLASGVPSRFKGSGSGTQFTLTISGVQCDDAATYYCQGSYYSSGWYRAFGGGTKVEIKR
